Biological target: T1, P^His (recombinant RSV A2 phosphoprotein (P) with a Histidine tag at its amino terminus, expressed from pETP … (respiratory syncytial virus, A2 strain, UniProt P03421 1-241))
T1 construct: also called P^His protein; recombinant P protein; not shown: N-terminal Histidine tag from vector pET16b
Assay: not described at this place (legend of FIG. 10)

KLCGMLLITE [peptide N4.10]
binding result: binds
